From the DeepSol protein solubility set

Test: soluble on expression in E. coli; label from the status in PepcDB or PDB records

Sequence | soluble on expression in E. coli
MSLNKTFTVEKANRFIAENKHLVNTQYKPEEHFSAEIGWINDPNGFVYFRGEYHLFYQFYPYDSVWGPMHWGHAKSKDLVTWEHLPVALAPDQDYDRNGCFSGSAIVKDDRLWLMYTGHIEEKTGVRQVQNMAFSDDGIHFEKISQNPVATGSDLPDELIAADFRDPKLFEKDGRYYSVVAAKHKNNVGCIVLLGSDNLVEWQFESIFLKGVEHQGFMWECPDYFELDGKDCLIMSPMRYQREGDSYHNINSSLLFTGKVDWGEKCFIPESVQEIDHGQDFYAPQTLLDDQNRRILIAWMQTWGRTLPTHDQEHKWACAMTLPRILRLEDGKLRQFPVKKGQYQIQIDKDCHYHLGNDTDYLEFGYDSNVQQVYIDRSHLIQKILGEEEQDTSRRYVDIEAKELEVVLDKNSIEIFVNQGEASLTATYYLTVPAELSRIDEGHHHHHH | soluble
MSLNLATLQSQFAKALHYQALGEDCDIASDEFTADERIQIYRNNFIVSLSEVLSATYPMVEALLGEECFEQIARQHVLSYPLKEGNVVHYGEGFQDTIMQFSQVIAQAPYSPEVARFEWHIDLARQAQYEQSNAAELKPLALLGEVSEEQQPALVLHLKKGCRSFDSNYAVFDLFSAIQTGQFEQLNINQLQQGVISIQANGEALCHALDADVFQLLQCLEQKQSLSEIPEVLLAHLNRIMALDIVDGFTLQSIEGHHHHHH | soluble
MSLNPASMKYEDQEFVIFDVETTGLSSVYDTIIEIGAVKMKNGEVIDRFDKFINPHHPLSETTINLTSITDEMVQAADDEAVVIKQFMDFYGNDPLCGHNVQFDVGFVDAALKRCGYPEISQPVVDTLEVSRLLHPEQSRHTLDSLCRKYNVPLEHHHRANQDAEATGYLMFKLLDAFNDKYQEDDLGKMNDYSNGEGYKRARPTHITVLAQNQKPGLRNLYELVSLAGIKYNFKGLRTPKSELRRLHAGLLYGSACSQGEVFIAMMQKGYEEAKKKAEFYDFLEIQPPSNYSSLIADGLIADEAQLEEILTNIYKLGRELNKPVVATSDAHYIDKHEAIYRDVLLAAQRGNPNRNKQHPDLHFYTTQEMLDEFSFMGEDIAKEVVISNPNKINAMIDEGVQPVQDESFPPKIPHTAERVRKLTYDKAHELYGDPLPDNIQARLDRELDAIIGNGYGVVYLISQMLVAKSVKDGYLVGSRGSVGSSLVATMMGITEINPMPPHYRCPKCKQSEFFENGEYASGFDLPDKKCPDCQVMMVKDGQNIPFETFLGFHGDKVPDIDLNFSGDYQPVAHNFIRVMFGPNHSFKAGTVGTLADKKAIGYVKHYQDEHPEIKMNNAEVDRLAIGVTGVKATTGQHPAGIVVLPDDKDIYELTPLQYPSDDISKEWKTTHFDFHQIHDNLLKFDILGHQDPTMIRMLQDLSGIDPLTIPTDDPKVMSLFSSPEALGVTPEQINSKTGTLGLPEFGTPFVRGMLEETKPSTFAELLQISGLSHGTDVWLGNAEELINNGTCKLKNVIGCRDNIMTDLIRWGVKEEVAFSTMETVRKGKGISDENMAVLKENKNIPDWYIPSCLKIKYMFPKAHAAAYILMALRVAWFKVYYPEIYYAAYFSVRADKVDLEAMSRGKNTVVALINRIKEKGTAATKLEKDLQTYMELVNEAIERGINFKMVDINESEATTYKIVDKHTILAPFNAVDGLGDSAAKQIVAARSEAPFLSKEDLQVRGKVSQKIMDFFENNNVLEGMPDQNQLSLFEGHHHHHH | soluble
MSLNPKIITQYKNKKVDAASTMTDISGKNILMGFWHNWPSESGQGYQQGMFAEMPLTGIDKAYNVIAVAFMKGAGIPTFKPYNLSDEAFRAQVAELNAQGRAVLISLGGADAHIELHAGQEEALAYEIIRLVEVYGFDGLDIDLEQAAITFADNRTVLPAALRMVREHYETEGKHFIISMAPEFPYLRSAARDTPLLKEITTYFPFLKEAVAFLTSFRSGGAYLAYIEALEDLYDFIAPQYYNQGGDGIWVDELNLWVTQNNDAHKKEFLYYLTDSLIHGTRGFTKIPANRLAIGLPTNNDAAATGYVINPDDVKYALDTLQADGNPIRGLMTWSVNWDNGTPKVGEAYKWEFAKRYGYLTGGEGHHHHHH | soluble
MSLNPLKCAVIGVGYLGKFHAEKYAALPGCELVAVVDADPVTAAEIGDRLGVRGLTDHRALLGKVDAVSVVVPTSLHHRVARDFLEAGAHVLVEKPITVTVEEADELIRIAKEKQRVLMVGHLERFNAAVLGLDLDHHKPLFIESHRLAPFKPRANDVSVVLDLMIHDIDIILDMVDSEVERIDAKGVAVLTGDIDIANARLQFKSGCVANVTASRVSLKVERKMRMFMPNAYVSVDFQNRVLARHRKGEGEMFPGVPEILSEESVFENGDALMEEIRHFLDCIREHREPLVSGAAGRRALATAIEITNLLKVQESRSEGHHHHHH | soluble
MSLNPPYTIVFALYPGVTQLDFTGPLEFLSKLPHARCVLASSRGEDIRADGGIVFADIARLGAIERCDLLLVPGGLGTIEAMEDAELLAQLRRLAASADYVSSVCTGSLLLGAAGLLKGRRAACHWAWLDSLAAFGAQPCPDRVVVDGKLISGGGVTAGIDMALTLMAEIAGPQFAQTAQLTLEYAEGHHHHHH | not soluble
MSLNRGIGVVTLSTLLASPSALARENPPAEDEPAALEALVVTGEKRERSLKDTASSVSLTSARDIDRKQTGNASVAEVINGSPNVVYTDSVGAPIIRGQDTQGPNNGQNVFWGGTVPRATINLDGHYLNYNEMFFGATSVWDVDSIEVFRGPQTTSQGANAIAGAIIVNTKDPTFSPEAAYQAEIGSYHSRRSSIAVSGPLAQDFAGRLAVDYAGRDTFIDYDNPKFQDSGTDQDFRALNARAKLLWLPSGIPGLESKFTFSHNDNNRPTQEAATRPFDKLDHRSTTMPSWEQDTNTSILDVAYDLDNGIRLFNQAQYSLSSVHRTTGAGGEGDADIRQKNASNESRISFGEQEDRISGMGGVYYARTRTDETLHLRGLSAFDDTKKNLGVFGELNYRLSDRWTLTTGLRYQEDRIERSGNSVLAPRPLDYQKTFSAFLPKVSLAFAATPDWTVGGLVSRGYNPGGVSLNLTTRNWAYFKEETIWNYELFTRASLLDGRLLLNGNLFFMDFKDAQYNIPVVVSPGVAQSYTINAEKAHAYGMELDLDYRLRDDLRLKASAGVLRTRIDEMSGNTGYEHNEFARSPGYTLSFGPSWDVTERLNLNAQVRYLDGYYSDTANTKAYSIKAYTLTDARASYRFNDQVQLYGYVKNVFDDRSPTYMQENRGIGGIEASMTQPRTLGIGIKGTFEGHHHHHH | not soluble
MSLNRNNPLEVLGHVSWLWASSPLHRNWPVSLFAINVLPAIRANQYALLTRDNYPVAYCSWANLSLENEIKYLNDVTSLVAEDWTSGDRKWFIVWIAPFGDNGALYKYMRKKFPDELFRAIRVDPKTHVGKVSEFHGGKIDKQLANKIFKQYHHELITEVKNKSDFNFSLTGEGHHHHHH | soluble
MSLNRQSKAAVPALREISPVKQQVSEEKKEIQEDSSILVDLKGAVQKEGVYKLTASSRVRDVIELAGGLTSEADKHAINFAEKLTDEQVVYVPKQGEEISVLPRSLVSGKKETASKDQSKVHINKASLEELQHIPGIGAKRAQDIIDMRDKLGGFKALEDLRQVSGIGEKTLEKLKDDIFLDEGHHHHHH | soluble
MSLNSMELLIIKERRIDYDGSAIRSHWAYRNFGILGDSLVVFRGKCNVKVEEMVDIEDLRLRKEIKGDDMVHYILELFWHPDILLASSLQKLLIARLVELLWNYGIEASRRGDDIYVNGRKLSISIATVSPVSIKIHIGLNVKTVGVPPGVDAIGLEELGIDPTEFMERSAKALVEEIEKVRKDSLKVRWVTEGHHHHHH | soluble
MSLNSNEKMGIFQGKKMKTKIIVIVGPTAVGKTALAIEVAKRFNGEVVSGDSQQVYRGLDIGTAKASPEEQAAVPHHLIDVREITESYSAFDFVSEAKMTIEDIHSRGKLAIIAGGTGLYIQSLLEGYHLGGETPHEEILAYRASLEPYSDEELAHLVEQAGLEIPQFNRRRAMRALEIAHFGQDLENQEILYEPLIICLDDERSQLYERINHRVDLMFEAGLLDEAKWLFDHSPNVQAAKGIGYKELFPYFRGEQTFEEARESLKQATRRFAKRQLTWFRNRMQVTFYQIGESGVQDRILSQIEEFLDDEGHHHHHH | soluble
MSLNSPIQAVIFDWAGTIVDFGSFAPTSIFVEAFKQGFDFEISLAEAREPMGLGKWQHIEAVGKLPTVAQRWQKQFGRPMQASDIDAIYAAFMPLQIAKVADHAAPIPHSLEVVEQIRSRGIKIGSCSGYPRQVMDVLIAAAADYGYRPDYVVATDDLAQGGRPAPFMALKNVIELGVTDVRACVKVDDALPGIEEGHNAGMWTVGLLLSGNEAGLTLEEYQHADDQTLQAARERAQAKLQQAKPHYLIDTVADLPAVLAQIEQRLLAGEREGHHHHHH | soluble
MSLNSQGYAVVDFETTGLSPAKGDRAIEIGLVHVAPDGTLEDEHETLIHVDRSVGASWVHHITARELLHAPDFEGIAHELRDLLAGRVFVAHNVSFDSRFLLAEYSRMGASIPVDQSTMLCTMKLSRSLIGRGKLADCCEYFGIANEDAHSALSDAHATAILLGRLLEADPKWPGFQRRLDAAGAAAEQWPTEGHHHHHH | not soluble
MSLNTPLAERLRPKKLEDYLSQHHLVGENGSLQQALKAGIIPSLILWGPPGIGKTTLATIIAEESKRPFYTLSAINSGVKDIREVIDKAKQSGGLFTQKNPILFIDEIHRFSKSQQDSLLGAVERGWVTLVGATTENPSFEVIPALLSRCQVYILKPFEKKDLILLLNRAINTDEILKKKNITLLETEALLRLSGGDARKLLNIFELIVTTENDKDVVVTNDMVLSKVQQNIVRYDKTGEQHYDIISAFIKSIRGSDPNAAVYWLARMIEGGEDVKFIARRLIIAAAEDIGNANPTALVIANNCFQAVTTIGYPEARIILSQCVTYLASSPKSNAAYMAIGKAQQLVKQTGDLSVPLPLRNAPTKLMKEIGYGNDYKYSHDYPGNFVQQEFLPKEISGTTLYEPTDNTREKAIKENLKAKWGSKYNYEGHHHHHH | soluble
MSLNTYLNEISKFVDENREEIVSLWKEIVNMESYTHCKESVNKLAERLKLEFEKEGLDCELVDVGDNGSTLIGTLGSNIDKKPIIFSGHMDTVFETGTFGENPFKIIEGKAYGPGVLDMKGGIIISLYVIKALNKIGYKERPIKIVFSGDEEIGHKDSTGADVILREAKGGLCAFNMETGLVDNSLCVGRKGRIGCNIHVKGVETHAGNDFEGGRNAIEEMANKILRIQKLTNLDVGTTVSVSVIKGGRVENSIPEDCSIKVDLRFEKVEEMENVKEQVREICKETYIEGTSTEVNFISEMMPFETTEDVMRFHTFVNEVSKENGFGELNAKRLGGSSDASYLTIANVPTICSFGVRGEWNHTSREYAVVDSMFERVKLISTVILNLDKFEEGHHHHHH | soluble
MSLNVDPNITKYMIKAKIVTDGVVEKPDVVGAIFGQTEGLLGDELDLRDLQKSGKIGRIEVEIDTKKGRTEGYVLIPSGLDQVESSILAAALETIDRIGPCKAKVEIESIEDVRINKRDRVIKRAEELYRKMGENGKSLSESIVQTVREEVEKKEIISYGEEHLPAGPAIADSDSIIVVEGRNDVLNLLRYGIKNTIAVQGTSVPKTVKELSKSRTVTLFVDGDHGGDLIIKEMLQVADVDFIARAPPGTEVEELTYKQIIKALKYKTPVEQYLETHGMIEELKEWSSRNTKELEERQGNELKNERPEKINENEESEKNVELKEGSVQKLETVPEFDPSSPESIKFKLKQLYESRELELFDGQSSVGKFPVSDAIEKIESMHGDLLITGGIISQRLLDIAYNIGVKAIYGFKIGNITKKPDDIKVVAWDHIEGHHHHHH | soluble
MSLNYIEDIKNYIPFNEQEERDKELFLRCLNDFHDILTRDNTIAHLTSSAFAVNKERNKFLMIHHNIYNSWAWTGGHSDNEKDQLKVAIKELKEETGVKNPTPLLDKAFALDVLTVNGHIKRGKYVSSHLHLNLTYLIECSEDETLMLKEDENSGVMWIPFNEISKYCSEPHMIPIYEKLINKLKTQSKEGHHHHHH | soluble
